This data set deals with T1, His-Dis3l2 D389N (mouse, UniProt Q8CI75 1-870, D389N).
T1 sequence: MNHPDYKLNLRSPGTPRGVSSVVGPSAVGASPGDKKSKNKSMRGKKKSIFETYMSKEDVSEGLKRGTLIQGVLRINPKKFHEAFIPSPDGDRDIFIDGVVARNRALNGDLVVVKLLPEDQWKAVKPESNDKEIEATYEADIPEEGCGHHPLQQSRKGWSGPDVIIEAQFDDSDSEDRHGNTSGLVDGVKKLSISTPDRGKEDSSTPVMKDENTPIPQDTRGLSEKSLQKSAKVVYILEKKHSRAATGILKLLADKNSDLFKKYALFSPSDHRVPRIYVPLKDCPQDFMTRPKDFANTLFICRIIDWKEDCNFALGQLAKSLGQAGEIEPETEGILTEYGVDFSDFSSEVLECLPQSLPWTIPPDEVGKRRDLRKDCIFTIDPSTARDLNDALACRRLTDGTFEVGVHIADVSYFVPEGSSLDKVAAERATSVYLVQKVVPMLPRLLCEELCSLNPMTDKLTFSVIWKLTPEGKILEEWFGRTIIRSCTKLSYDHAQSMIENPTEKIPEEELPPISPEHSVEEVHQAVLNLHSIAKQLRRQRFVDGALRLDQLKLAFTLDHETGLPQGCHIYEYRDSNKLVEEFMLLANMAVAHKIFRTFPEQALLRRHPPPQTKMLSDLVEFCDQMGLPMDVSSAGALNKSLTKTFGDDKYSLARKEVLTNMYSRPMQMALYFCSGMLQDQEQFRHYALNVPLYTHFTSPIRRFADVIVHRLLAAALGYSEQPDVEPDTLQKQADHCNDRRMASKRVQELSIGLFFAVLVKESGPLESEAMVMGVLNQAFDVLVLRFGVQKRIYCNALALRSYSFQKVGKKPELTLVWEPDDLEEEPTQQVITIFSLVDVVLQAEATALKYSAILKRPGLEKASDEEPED
Nature of the data set: EMSA. A general note: A gel shift assay detects complexes by their altered migration in electrophoresis.

B1: mmu-pre-let-7a-1+14U (structured_RNA)
RNA: UGAGGUAGUAGGUUGUAUAGUUUUAGGGUCACACCCACCACUGGGAGAUAACUAUACAAUCUACUGUCUUUCCUUUUUUUUUUUUUU
With B1, the binding result is reported as “binds”.

B2: mmu-pre-let-7a-1 (structured_RNA)
RNA: UGAGGUAGUAGGUUGUAUAGUUUUAGGGUCACACCCACCACUGGGAGAUAACUAUACAAUCUACUGUCUUUCC
With B2, the binding result was “no binding”.

These data come from PMC3651781.
